In article PMC4678419:

Experiments:
[1] = molecular target: biotin-labeled surface proteins from THP-1 cells; test: SPR; Biacore 3000; biotin-labeled surface proteins from THP-1 cells (3.2 kRU) or human monocytes (2.3 kRU) captured on a SA chip; 25 nM S100A8, S100A9 or S100A8/S100A9 injected 3 min at 20 uL/min in HBS-P with 1 mM Ca and 20 uM Zn; fit to a 1:1 model
[2] = molecular target: biotin-labeled surface proteins from human monocytes; test: as above

B1: S100A9 (recombinant human S100A9, produced at Active Biotech AB) (natural protein)
chain: MTCKMSQLERNIETIINTFHQYSVKLGHPDTLNQGEFKELVRKDLQNFLKKENKNEKVIEHIMEDLDTNADKQLSFEEFIMLMARLTWASHEKMHEGDEGPGHHHKPGLGEGTP
Question: Which results are given for B1?
Answer: Kd [1]: 3.3 nM; Kd [2]: 2.3 nM
